Reference: patent US20200369774A1 (JIANGSU HENGRUI MEDICINE, published 2020)
One block for each binder: values may come before it.

How the values were obtained:
[1] = biological target: T1, hIL-6R.BP15 (human interleukin-6 receptor with BP15 tag, biotinylated) (human, UniProt P08887 20-365, site-directed biotinylation on the BP15 tag); assay: blocking ELISA: coated IL-6.Fc, 1 ng/ul biotinylated IL-6R.BP15 with serially diluted antibody, HRP-streptavidin, OD450; blocked ligand IL-6.Fc; unit from the abscissa
T1 sequence: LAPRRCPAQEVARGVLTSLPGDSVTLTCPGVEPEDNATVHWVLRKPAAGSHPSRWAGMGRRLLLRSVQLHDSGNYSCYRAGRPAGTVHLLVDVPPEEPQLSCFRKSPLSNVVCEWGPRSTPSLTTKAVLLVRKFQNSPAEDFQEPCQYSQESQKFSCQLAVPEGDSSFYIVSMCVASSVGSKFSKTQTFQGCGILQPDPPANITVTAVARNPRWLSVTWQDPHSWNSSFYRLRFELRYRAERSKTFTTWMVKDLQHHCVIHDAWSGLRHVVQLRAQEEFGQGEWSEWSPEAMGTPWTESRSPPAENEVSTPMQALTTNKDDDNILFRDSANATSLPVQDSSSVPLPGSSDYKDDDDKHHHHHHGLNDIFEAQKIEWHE
Description: The formation of IL-6R/IL-6 complex can be blocked by the binding of IL-6R antibody to IL-6R, indicating the downstream cell signaling could be blocked by preventing IL-6/IL-6Rcomplex formationon the cell membrane. All of the expressed the purified antibodies were tested for their abilities to block the binding between IL-6 and IL-6R by ELISA. The procedures was descripted as follows:
The plates were coated with100 μl of 2 ng/μl IL-6.Fc at 4° C. overnight, and blocked with 2% skim milk at 37° C. for 1 hour. The plates were then washed, incubated with 100 μl of serial diluted testing samples with and 1 ng/μl IL-6R.BP15. After 1 hourincubation at 37° C,. the plates were washed andHRP-streptavidin (Jackson, 016-030-084) diluted at 1:4000 was added to the plate followed by incubation. After wash and 100 μl TMB develoment at room temperature for 5 min. 100 μl of 1M H₂SO₄ was added to terminate the reaction. The OD₄₅₀ values were read.

[2] = biological target: T1, hIL-6R.BP15 (human interleukin-6 …); assay: blocking ELISA: coated gp130, IL-6.his and IL-6R.BP15 (0.06 ug/ml) with serially diluted antibody, HRP-streptavidin, OD450; blocked: binding of the IL-6/IL-6R complex to gp130; unit from the abscissa
Description: The complex of IL-6 and IL-6R can bind to GP130. The assay will evaluate if the selected antibodies were able to block the formation of IL-6/IL-6R/gp130 complex by binding to IL-6R. The plates were coated with 1 μg/ml gp130 (diluted in PBS) at 4° C. overnight. The coating solution was discarded, and plates were blocked with 5% skim milk in PBS at 37° C. for 2-3h. After blocking, the plates were washed 3 times with washing buffer PBST (0.1% Tween-20 in PBS).
IL-6.his and IL-6R.BP15 were diluted with 1% BSA in PBS to a concentration of 0.06 μg/ml. Starting at 50 ug/ml, IL-6R antibodies were 1:3 serially diluted in dilution buffer and Both testing antibody samples and IL-6/IL-6R complex were added to the plate followed by lh incubation at 37° C. After that, the plates were washed for 3 times with washing buffer PBST (0.1% Tween-20 in PBS).
1:2000 diluted Secondary antibody HRP streptavidin (Jackson, 016-030-084) was added to the plate followed by 1 h incubation at 37° C.After incubation and wash,. TMB was used for development. OD₄₅₀ values were read.

[3] = biological target: T2, membrane-type IL-6R on cells (U266B1, TF-1, Hep3B) (UniProt P08887 20-468, limits assumed); assay: cell-based or functional assay
T2 sequence (looked up): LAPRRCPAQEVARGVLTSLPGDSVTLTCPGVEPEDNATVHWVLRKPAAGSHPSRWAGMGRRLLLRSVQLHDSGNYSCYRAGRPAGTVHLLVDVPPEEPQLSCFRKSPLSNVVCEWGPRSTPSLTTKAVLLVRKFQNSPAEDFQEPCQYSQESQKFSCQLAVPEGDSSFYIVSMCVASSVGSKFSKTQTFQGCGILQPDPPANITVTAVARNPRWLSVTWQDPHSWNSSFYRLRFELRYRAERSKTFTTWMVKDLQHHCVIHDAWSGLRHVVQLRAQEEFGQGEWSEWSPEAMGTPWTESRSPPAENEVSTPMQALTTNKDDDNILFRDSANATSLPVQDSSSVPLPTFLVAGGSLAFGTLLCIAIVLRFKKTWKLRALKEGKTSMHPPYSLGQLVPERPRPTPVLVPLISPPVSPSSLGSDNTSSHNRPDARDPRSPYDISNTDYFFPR

- IC50 [1]: 0.5 µg/mL
- IC50 [2]: 0.0474 µg/mL
B1: Sari (antibody, human IgG1, kappa, V domains shown)
VH: EVQLVESGGGLVQPGRSLRLSCAASRFTFDDYAMHWVRQAPGKGLEWVSGISWNSGRIGYADSVKGRFTISRDNAENSLFLQMNGLRAEDTALYYCAKGRDSFDIWGQGTMVTVSS
VL: DIQMTQSPSSVSASVGDRVTITCRASQGISSWLAWYQQKPGKAPKLLIYGASSLESGVPSRFSGSGSGTDFTLTISSLQPEDFASYYCQQANSFPYTFGQGTKLEIKR
notes: Positive control antibody; also called Sarilumab; anti-IL-6R antibody sarilumab (Regeneron)

- Relative expression level of hepcidin mRNA (fold) in Hep3B cells with 5 nM antibody and 10 ng/ml IL-6 (blank 1; IL-6 only 2.783) [3]: 1.87 fold
- IC50 [1]: 0.466 µg/mL
- IC50 [2]: 0.49 µg/mL
B2: Tocilizumab (antibody, human IgG1, kappa, V domains shown)
VH: EVQLQESGPGLVRPSQTLSLTCTVSGYSITSDHAWSWVRQPPGRGLEWIGYISYSGITTYNPSLKSRVTMLRDTSKNQFSLRLSSVTAADTAVYYCARSLARTTAMDYWGQGSLVTVSS
VL: DIQMTQSPSSLSASVGDRVTITCRASQDISSYLNWYQQKPGKAPKLLIYYTSRLHSGVPSRFSGSGSGTDFTFTISSLQPEDIATYYCQQGNTLPYTFGQGTKVEIKR
notes: Positive control; also called anti-IL-6R humanized mAb tocilizumab
